Assays:
Grb2 SH2 = Grb2 SH2 (UniProt P62993); assay: SH2 binding enrichment of the phosphorylated peptide, bacterial display (enrichment ratio); higher = better substrate or ligand; peptides without Tyr show the background
SHP2-C SH2 = assay: as above
c-Src SH2 = assay: as above
AncSZ = assay: phosphorylation enrichment, bacterial display (enrichment ratio); higher = better substrate or ligand; peptides without Tyr show the background
EPHB2 = EPHB2 (UniProt P29323); assay: as above
MERTK = MERTK (UniProt Q12866); assay: as above
FGFR3 = FGFR3 (UniProt P22607); assay: as above
FGFR3, sequence (P22607 whole entry, looked up): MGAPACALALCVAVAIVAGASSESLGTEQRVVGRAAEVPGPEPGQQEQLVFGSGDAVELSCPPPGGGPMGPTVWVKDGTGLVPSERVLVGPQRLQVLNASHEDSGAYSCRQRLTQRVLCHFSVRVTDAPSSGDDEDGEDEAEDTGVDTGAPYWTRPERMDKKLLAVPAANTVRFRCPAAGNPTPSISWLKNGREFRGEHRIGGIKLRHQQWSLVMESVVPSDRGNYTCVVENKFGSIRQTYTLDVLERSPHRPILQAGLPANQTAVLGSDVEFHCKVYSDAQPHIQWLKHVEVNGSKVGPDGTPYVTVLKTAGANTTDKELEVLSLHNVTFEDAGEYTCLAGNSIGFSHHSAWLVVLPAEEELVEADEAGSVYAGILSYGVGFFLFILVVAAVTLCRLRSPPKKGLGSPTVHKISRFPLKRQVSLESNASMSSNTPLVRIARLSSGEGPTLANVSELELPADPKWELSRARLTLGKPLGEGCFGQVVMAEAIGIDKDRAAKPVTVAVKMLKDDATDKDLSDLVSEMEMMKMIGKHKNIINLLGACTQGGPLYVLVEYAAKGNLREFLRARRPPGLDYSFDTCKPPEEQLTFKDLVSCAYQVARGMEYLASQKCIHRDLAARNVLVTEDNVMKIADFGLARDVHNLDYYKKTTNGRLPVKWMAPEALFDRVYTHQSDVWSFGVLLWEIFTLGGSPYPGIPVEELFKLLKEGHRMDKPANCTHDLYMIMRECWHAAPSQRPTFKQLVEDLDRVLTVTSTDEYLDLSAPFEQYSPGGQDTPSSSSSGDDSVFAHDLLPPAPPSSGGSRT

Jak2 = Jak2 (UniProt O60674); assay: as above
Jak2, sequence (O60674 whole entry, looked up): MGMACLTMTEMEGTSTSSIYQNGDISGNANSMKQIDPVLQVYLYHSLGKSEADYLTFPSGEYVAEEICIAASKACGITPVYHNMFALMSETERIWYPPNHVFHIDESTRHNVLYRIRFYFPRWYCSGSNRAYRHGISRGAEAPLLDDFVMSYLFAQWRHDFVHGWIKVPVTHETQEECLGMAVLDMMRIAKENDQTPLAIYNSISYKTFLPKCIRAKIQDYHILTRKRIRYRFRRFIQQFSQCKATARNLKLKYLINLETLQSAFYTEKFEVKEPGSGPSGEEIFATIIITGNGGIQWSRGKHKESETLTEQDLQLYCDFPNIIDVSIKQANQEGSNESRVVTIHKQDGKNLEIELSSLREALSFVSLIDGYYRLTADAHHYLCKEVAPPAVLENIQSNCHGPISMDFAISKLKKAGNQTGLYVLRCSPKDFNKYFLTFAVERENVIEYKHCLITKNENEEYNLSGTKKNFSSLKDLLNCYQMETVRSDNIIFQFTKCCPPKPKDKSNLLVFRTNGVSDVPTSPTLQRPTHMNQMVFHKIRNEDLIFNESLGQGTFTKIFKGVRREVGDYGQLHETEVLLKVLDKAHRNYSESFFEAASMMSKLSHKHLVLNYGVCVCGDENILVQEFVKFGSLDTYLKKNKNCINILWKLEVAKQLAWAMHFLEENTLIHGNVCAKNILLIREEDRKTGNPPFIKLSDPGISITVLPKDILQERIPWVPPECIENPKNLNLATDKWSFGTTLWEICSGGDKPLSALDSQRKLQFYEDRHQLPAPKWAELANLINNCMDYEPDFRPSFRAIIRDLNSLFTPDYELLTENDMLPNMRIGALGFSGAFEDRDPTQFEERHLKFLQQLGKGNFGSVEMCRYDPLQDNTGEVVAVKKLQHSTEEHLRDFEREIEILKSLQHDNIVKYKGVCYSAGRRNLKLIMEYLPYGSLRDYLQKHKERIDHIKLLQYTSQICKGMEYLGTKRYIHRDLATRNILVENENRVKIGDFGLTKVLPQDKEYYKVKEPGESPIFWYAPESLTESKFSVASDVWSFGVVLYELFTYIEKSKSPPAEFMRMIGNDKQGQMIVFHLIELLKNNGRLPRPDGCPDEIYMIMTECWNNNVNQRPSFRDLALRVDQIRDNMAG

Fyn = Fyn (UniProt P06241); assay: as above
Fyn, sequence (P06241 whole entry, looked up): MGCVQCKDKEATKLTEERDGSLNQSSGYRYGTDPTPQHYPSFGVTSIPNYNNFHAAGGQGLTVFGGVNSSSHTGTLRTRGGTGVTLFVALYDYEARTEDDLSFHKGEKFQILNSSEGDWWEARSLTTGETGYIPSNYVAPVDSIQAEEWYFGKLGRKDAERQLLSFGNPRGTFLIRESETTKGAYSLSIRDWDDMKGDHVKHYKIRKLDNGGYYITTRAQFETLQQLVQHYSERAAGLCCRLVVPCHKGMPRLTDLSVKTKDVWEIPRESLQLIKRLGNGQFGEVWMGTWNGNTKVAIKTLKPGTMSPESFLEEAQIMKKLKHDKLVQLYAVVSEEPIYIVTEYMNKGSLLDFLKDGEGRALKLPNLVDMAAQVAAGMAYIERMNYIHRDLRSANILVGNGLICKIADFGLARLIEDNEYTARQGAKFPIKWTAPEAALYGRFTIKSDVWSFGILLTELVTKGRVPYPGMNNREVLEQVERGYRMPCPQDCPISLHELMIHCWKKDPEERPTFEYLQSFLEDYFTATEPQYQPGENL

FGFR1 = FGFR1 (UniProt P11362); assay: as above
FGFR1, sequence (P11362 whole entry, looked up): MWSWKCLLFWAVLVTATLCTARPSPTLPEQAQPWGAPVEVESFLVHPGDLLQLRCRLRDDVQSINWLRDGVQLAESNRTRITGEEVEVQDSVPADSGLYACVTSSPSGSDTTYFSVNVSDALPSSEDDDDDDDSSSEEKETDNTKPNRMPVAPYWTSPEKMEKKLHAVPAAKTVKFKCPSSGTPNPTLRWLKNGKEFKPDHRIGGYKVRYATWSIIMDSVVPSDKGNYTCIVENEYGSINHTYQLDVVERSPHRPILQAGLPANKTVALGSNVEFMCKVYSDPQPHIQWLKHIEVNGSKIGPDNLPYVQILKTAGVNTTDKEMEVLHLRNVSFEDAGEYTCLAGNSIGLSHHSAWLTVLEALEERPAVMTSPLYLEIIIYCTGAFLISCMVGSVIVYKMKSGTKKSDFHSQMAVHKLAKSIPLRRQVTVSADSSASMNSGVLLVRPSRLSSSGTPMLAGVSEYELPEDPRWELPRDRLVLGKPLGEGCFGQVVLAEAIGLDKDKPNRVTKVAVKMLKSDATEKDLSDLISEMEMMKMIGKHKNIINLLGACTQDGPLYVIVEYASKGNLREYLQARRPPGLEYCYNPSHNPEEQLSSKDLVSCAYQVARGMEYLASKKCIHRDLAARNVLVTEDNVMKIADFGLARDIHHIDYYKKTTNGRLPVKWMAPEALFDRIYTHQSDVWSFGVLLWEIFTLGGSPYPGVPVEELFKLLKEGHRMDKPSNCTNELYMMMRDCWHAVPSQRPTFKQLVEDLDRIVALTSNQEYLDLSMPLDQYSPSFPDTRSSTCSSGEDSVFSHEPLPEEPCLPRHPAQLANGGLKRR

Fer (mouse) = assay: as above
EPHB1 = EPHB1 (UniProt P54762); assay: as above
Fes = Fes (UniProt P07332); assay: as above
Fes, sequence (P07332 whole entry, looked up): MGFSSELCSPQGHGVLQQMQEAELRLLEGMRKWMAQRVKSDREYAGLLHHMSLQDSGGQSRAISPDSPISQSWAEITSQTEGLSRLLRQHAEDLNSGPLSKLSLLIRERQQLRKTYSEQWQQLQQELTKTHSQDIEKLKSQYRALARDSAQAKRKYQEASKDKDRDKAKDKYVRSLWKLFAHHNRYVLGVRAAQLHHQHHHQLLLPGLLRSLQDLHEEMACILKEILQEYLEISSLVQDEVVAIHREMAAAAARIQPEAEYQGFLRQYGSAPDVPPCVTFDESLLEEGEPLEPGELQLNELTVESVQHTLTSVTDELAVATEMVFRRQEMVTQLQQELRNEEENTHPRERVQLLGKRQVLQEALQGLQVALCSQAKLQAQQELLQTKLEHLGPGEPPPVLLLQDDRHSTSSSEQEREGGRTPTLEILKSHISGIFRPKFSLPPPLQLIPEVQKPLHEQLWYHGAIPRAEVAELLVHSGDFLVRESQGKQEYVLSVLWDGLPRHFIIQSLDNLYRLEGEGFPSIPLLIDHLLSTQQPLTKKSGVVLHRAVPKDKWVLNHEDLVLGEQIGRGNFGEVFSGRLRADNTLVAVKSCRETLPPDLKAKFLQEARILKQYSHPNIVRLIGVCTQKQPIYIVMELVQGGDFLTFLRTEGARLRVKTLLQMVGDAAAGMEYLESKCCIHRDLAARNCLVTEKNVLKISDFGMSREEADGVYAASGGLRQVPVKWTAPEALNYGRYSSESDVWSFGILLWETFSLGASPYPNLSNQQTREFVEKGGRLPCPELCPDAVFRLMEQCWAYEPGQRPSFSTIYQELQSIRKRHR

Hck = Hck (UniProt P08631); assay: as above
Hck, sequence (P08631 whole entry, looked up): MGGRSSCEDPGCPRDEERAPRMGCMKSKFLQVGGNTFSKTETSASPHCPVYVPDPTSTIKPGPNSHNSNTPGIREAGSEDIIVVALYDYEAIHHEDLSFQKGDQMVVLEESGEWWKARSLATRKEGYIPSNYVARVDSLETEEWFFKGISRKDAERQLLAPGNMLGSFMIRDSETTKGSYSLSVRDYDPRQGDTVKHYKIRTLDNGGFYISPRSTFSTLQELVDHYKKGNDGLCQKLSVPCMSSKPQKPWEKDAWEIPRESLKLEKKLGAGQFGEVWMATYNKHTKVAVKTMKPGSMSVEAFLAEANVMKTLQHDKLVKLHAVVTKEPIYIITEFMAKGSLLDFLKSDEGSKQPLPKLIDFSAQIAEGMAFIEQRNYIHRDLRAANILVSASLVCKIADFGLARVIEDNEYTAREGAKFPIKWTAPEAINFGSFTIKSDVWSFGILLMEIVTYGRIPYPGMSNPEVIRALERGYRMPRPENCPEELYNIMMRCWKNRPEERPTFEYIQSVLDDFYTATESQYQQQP

c-Abl (mouse) = assay: as above
c-Src = assay: as above
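Throughout, for SH2 binding enrichment of the phosphorylated peptide, bacterial display: peptide library displayed on the E. coli surface as eCPX fusions, selected cells deep-sequenced, score is each peptide's frequency after selection divided by its frequency in the input.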
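Throughout, for phosphorylation enrichment, bacterial display: 11-residue human phosphosite peptides and single-mutation variants displayed on the E. coli surface, counted by deep sequencing, each peptide's frequency after selection divided by its frequency in the unselected input library; frequency after pTyr selection over input frequency; kinase dosed for 20-30% of maximal phosphorylation in three min.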

Row | Sequence | SH2 binding enrichment (Grb2 SH2) | SH2 binding enrichment (SHP2-C SH2) | SH2 binding enrichment (c-Src SH2) | phosphorylation enrichment (AncSZ) | phosphorylation enrichment (EPHB2) | phosphorylation enrichment (MERTK) | phosphorylation enrichment (FGFR3) | phosphorylation enrichment (Jak2) | phosphorylation enrichment (Fyn) | phosphorylation enrichment (FGFR1) | phosphorylation enrichment (Fer (mouse)) | phosphorylation enrichment (EPHB1) | phosphorylation enrichment (Fes) | phosphorylation enrichment (Hck) | phosphorylation enrichment (c-Abl (mouse)) | phosphorylation enrichment (c-Src)
1 | LNERHYGALIG [BPGM_Y92] | 0.871 | 0.74 | 0.613 | 0.534 | 0.469 | 0.536 | 0.47 | 0.571 | 0.514 | 0.42 | 0.459 | 0.319 | 0.609 | 0.561 | 0.461 | 0.639
2 | LSDGPYSSPYE [EPOR_Y485_N487S] | 0.808 | 0.762 | 3.98 | 2.3 | 0.95 | 0.523 | 1.61 | 1.2 | 0.882 | 0.421 | 0.831 | 1.2 | 1.39 | 0.739 | 1.18 | 1.09
3 | CTLTHYKSAVK [ASNS_Y555_R550C] | 0.942 | 0.682 | 0.585 | 0.807 | 0.431 | 0.428 | 0.529 | 0.689 | 0.387 | 0.514 | 0.51 | 0.564 | 0.749 | 0.518 | 0.529 | 0.408

More lines, main results first:

Row | SH2 binding enrichment (Grb2 SH2) | SH2 binding enrichment (SHP2-C SH2) | SH2 binding enrichment (c-Src SH2) | Sequence | phosphorylation enrichment (AncSZ) | phosphorylation enrichment (EPHB2) | phosphorylation enrichment (MERTK) | phosphorylation enrichment (FGFR3) | phosphorylation enrichment (Jak2) | phosphorylation enrichment (Fyn) | phosphorylation enrichment (FGFR1) | phosphorylation enrichment (Fer (mouse)) | phosphorylation enrichment (EPHB1) | phosphorylation enrichment (Fes) | phosphorylation enrichment (Hck) | phosphorylation enrichment (c-Abl (mouse)) | phosphorylation enrichment (c-Src)
4 | 1.08 | 0.856 | 0.533 | HQEPVYSVAFS [TBL1X_Y509] | 4.16 | 31.1 | 14.5 | 3.89 | 0.688 | 15.6 | 4.88 | 24.1 | 25.8 | 2.74 | 14.2 | 30.7 | 9.13
5 | 0.837 | 0.645 | 0.506 | SVVVPYEPSEV [TP53_Y220_P223S] | 1.21 | 0.515 | 0.503 | 0.846 | 1.02 | 0.554 | 0.52 | 0.685 | 0.632 | 1.23 | 0.6 | 0.619 | 0.509

Source: the supplement of paper PMC10065799, “High-throughput profiling of sequence recognition by tyrosine kinases and SH2 domains using bacterial peptide display” (eLife, 2023)
